This is an account of results in patent US20020110883.

The target in this data set is microtubules.

B1: Kip3A 353 protein (protein)
chain: MAVEDSTLQVVVRVRPPTPRELDSQRRPVVQVVDERVLVFNPEEPDGGFPGLKWGGTHDGPKKKGKDLTFVFDRVFGEAATQQDVFQHTTHSVLDSFLQGYNCSVFAYGATGAGKTHTMLGREGDPGIMYLTTVELYRRLEARQQEKHFEVLISYQEVYNEQIHDLLEPKGPLAIREDPDKGVVVQGLSFHQPASAEQLLEILTRGNRNRTQHPTDANATSSRSHAIFQIFVKQQDRVPGLTQAVQVAKMSLIDLAGSERASSTHAKGERLREGANINRSLLALINVLNALADAKGRKTHVPYRDSKLTRLLKDSLGGNCRTVMIAAISPSSLTYEDTYNTLKYADRAKEIRLKGNSKLEGKPIPNPLLGLDSTRTGHHHHHH
For B1, the “Km for microtubule stimulation (coupled PK/LDH ATPase assay, Michaelis-Menten fit)” value was “Km for microtubule stimulation of 4.6 ug/ml”; the “Vmax of microtubule-stimulated ATPase (coupled PK/LDH ATPase assay, Michaelis-Menten fit)” value was “Vmax 0.85 uM ADP/s”; the “kcat of microtubule-stimulated ATPase (from Vmax)” value was “corresponds to a kcat value of 15s^-”.
